According to PMC10688784, “In vitro characterization of the phage lysis protein MS2-L” (Microbiome Research Reports, 2023):
Where two headings read alike, the source gives them in different places.

Legend:
[1] = target: MS2-Lp23, MS2-L truncated of the first 22 amino acids, C-terminal StrepII-tag (MS2 phage); assay: native MS; LILBID-MS; derivatives CF expressed in standard A19 S30 lysate with 0.4% Brij78, purified; 50 mM ammonium acetate pH 7.4 with 0.02% Brij78; laser 10-20 mJ
[2] = target: MS2-Lp23, MS2-L truncated of the first 22 amino acids, C-terminal StrepII-tag (MS2 phage); assay: native MS; LILBID-MS; derivatives CF expressed in standard A19 S30 lysate with 60 µM DMPG nanodiscs, purified; 50 mM ammonium acetate pH 7.4; laser 10-20 mJ
[3] = target: MS2-Lp26, MS2-L truncated of the first 25 amino acids, C-terminal StrepII-tag (MS2 phage); assay: native MS; LILBID-MS; derivatives CF expressed in standard A19 S30 lysate with 0.4% Brij78, purified; 50 mM ammonium acetate pH 7.4 with 0.02% Brij78; laser 10-20 mJ
[4] = target: MS2-Lp26, MS2-L truncated of the first 25 amino acids, C-terminal StrepII-tag (MS2 phage); assay: native MS; LILBID-MS; derivatives CF expressed in standard A19 S30 lysate with 60 µM DMPG nanodiscs, purified; 50 mM ammonium acetate pH 7.4; laser 10-20 mJ
[5] = target: MS2-Lp29, MS2-L truncated of the first 28 amino acids, C-terminal StrepII-tag (MS2 phage); assay: native MS; LILBID-MS; derivatives CF expressed in standard A19 S30 lysate with 0.4% Brij78, purified; 50 mM ammonium acetate pH 7.4 with 0.02% Brij78; laser 10-20 mJ
[6] = target: MS2-Lp29, MS2-L truncated of the first 28 amino acids, C-terminal StrepII-tag (MS2 phage); assay: native MS; LILBID-MS; derivatives CF expressed in standard A19 S30 lysate with 60 µM DMPG nanodiscs, purified; 50 mM ammonium acetate pH 7.4; laser 10-20 mJ
[7] = target: MS2-Lp32, MS2-L truncated of the first 31 amino acids, C-terminal StrepII-tag (MS2 phage); assay: native MS; LILBID-MS; derivatives CF expressed in standard A19 S30 lysate with 0.4% Brij78, purified; 50 mM ammonium acetate pH 7.4 with 0.02% Brij78; laser 10-20 mJ
[8] = target: MS2-Lp32, MS2-L truncated of the first 31 amino acids, C-terminal StrepII-tag (MS2 phage); assay: native MS; LILBID-MS; derivatives CF expressed in standard A19 S30 lysate with 60 µM DMPG nanodiscs, purified; 50 mM ammonium acetate pH 7.4; laser 10-20 mJ
[9] = target: MS2-Lp35, MS2-L truncated of the first 34 amino acids, C-terminal StrepII-tag (MS2 phage); assay: native MS; LILBID-MS; derivatives CF expressed in standard A19 S30 lysate with 0.4% Brij78, purified; 50 mM ammonium acetate pH 7.4 with 0.02% Brij78; laser 10-20 mJ
[10] = target: MS2-Lp35, MS2-L truncated of the first 34 amino acids, C-terminal StrepII-tag (MS2 phage); assay: native MS; LILBID-MS; derivatives CF expressed in standard A19 S30 lysate with 60 µM DMPG nanodiscs, purified; 50 mM ammonium acetate pH 7.4; laser 10-20 mJ
[11] = target: T1, chaperone DnaJ with C-terminal His6-tag (UniProt P08622 1-376); assay: pull-down; conditions: one partner purified
T1 construct: Chaperone DnaJ; the dnaJ gene cloned into NdeI/XhoI of pET21a; source: E. coli T7 Express, purified (Ni-NTA); not shown: His6, C-terminal, kept
T1 sequence (looked up): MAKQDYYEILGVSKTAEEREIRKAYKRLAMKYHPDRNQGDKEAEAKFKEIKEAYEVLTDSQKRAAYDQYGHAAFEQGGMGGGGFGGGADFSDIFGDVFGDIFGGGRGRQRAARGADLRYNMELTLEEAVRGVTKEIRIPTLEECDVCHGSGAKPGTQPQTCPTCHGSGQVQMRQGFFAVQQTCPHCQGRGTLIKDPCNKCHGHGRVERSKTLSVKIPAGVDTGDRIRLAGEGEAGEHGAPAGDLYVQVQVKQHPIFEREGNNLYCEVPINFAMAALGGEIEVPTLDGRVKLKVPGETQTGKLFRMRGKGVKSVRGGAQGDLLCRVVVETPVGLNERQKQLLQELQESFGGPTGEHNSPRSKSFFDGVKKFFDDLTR

[12] = target: MS2-L, full-length phage lysis protein with C-terminal StrepII-tag (MS2 phage) (UniProt P03609); assay: native MS; LILBID-MS; derivatives CF expressed in standard A19 S30 lysate with 60 µM DMPG nanodiscs, purified; 50 mM ammonium acetate pH 7.4; laser 10-20 mJ
[13] = target: MS2-L, full-length phage lysis protein with C-terminal StrepII-tag (MS2 phage) (UniProt P03609); assay: as above; remark: listed apart in the source

“MS2-Lp23, MS2-L truncated of the first 22 amino acids, C-terminal StrepII-tag (domain or fragment)” was tested, and the stoichiometry N [1] was < 4 monomers and the stoichiometry N [2] was > 10 monomers.

With “MS2-Lp26, MS2-L truncated of the first 25 amino acids, C-terminal StrepII-tag (domain or fragment)” the stoichiometry N [3] was < 4 monomers and the stoichiometry N [4] was > 10 monomers.

With “MS2-Lp29, MS2-L truncated of the first 28 amino acids, C-terminal StrepII-tag (domain or fragment)” the stoichiometry N [5] was < 4 monomers and the stoichiometry N [6] was > 10 monomers.

For “MS2-Lp32, MS2-L truncated of the first 31 amino acids, C-terminal StrepII-tag (domain or fragment)”, the stoichiometry N [7] was < 4 monomers and the stoichiometry N [8] was > 10 monomers.

For “MS2-Lp35, MS2-L truncated of the first 34 amino acids, C-terminal StrepII-tag (domain or fragment)”, the stoichiometry N [9] was < 10 monomers and the stoichiometry N [10] was > 10 monomers.

B1: MS2-L, full-length phage lysis protein with C-terminal StrepII-tag (natural protein, MS2 phage, UniProt P03609 1-75, looked up)
chain: MKTRFPQQSQQTPASTNRRRPFKHEDYPCRRQQRSSTLYVLIFLAIFLSKFTNQLLLSLLEAVIRTVTTLQQLLT
notes: Lysis protein L of bacteriophage MS2, 75 amino acids; codon exchange GAA (Glu) to AAA (Lys) at the first position after the start methionine; In nanodisc samples the peptide sits in MSP1E3D1/DMPG nanodiscs; also called full-length MS2-L; full-length toxin MS2-L; source: also unpurified in the reaction mix; not shown: StrepII, C-terminal, kept
B1 was tested, and the binding result [11] was “binds”, the stoichiometry N [12] was < 12 monomers and the stoichiometry N [13] was > 10 monomers.
